Assay results as given in paper PMC8124205, “Immuno-PET Molecular Imaging of RANKL in Cancer” (Cancers, 2021).

Target: T1, osteoprotegerin (OPG) (UniProt O00300 22-401)
T1 construct: osteoprotegerin (OPG)
T1 sequence (looked up): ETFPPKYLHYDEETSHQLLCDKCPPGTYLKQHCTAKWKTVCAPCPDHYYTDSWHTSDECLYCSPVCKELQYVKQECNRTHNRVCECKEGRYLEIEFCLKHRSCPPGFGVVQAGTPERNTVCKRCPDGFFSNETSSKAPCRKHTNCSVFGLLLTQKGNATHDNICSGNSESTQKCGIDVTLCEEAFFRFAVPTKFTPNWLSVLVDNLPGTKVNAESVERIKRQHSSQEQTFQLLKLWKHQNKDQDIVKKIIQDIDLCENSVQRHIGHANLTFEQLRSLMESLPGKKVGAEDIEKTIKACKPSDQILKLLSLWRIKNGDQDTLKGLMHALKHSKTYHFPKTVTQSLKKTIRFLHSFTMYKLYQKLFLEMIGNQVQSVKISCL
Assay: non-cell based binding assay; binding to human RANKL, as previously described (ref. 14); format and conditions not told

Kd: ~0.63 nM
B1: human receptor activator of nuclear factor kappa B ligand (RANKL) (ligand, UniProt O14788 140-317, looked up)
chain: IRAEKAMVDGSWLDLAKRSKLEAQPFAHLTINATDIPSGSHKVSLSSWYHDRGWAKISNMTFSNGKLIVNQDGFYYLYANICFRHHETSGDLATEYLQLMVYVTKTSIKIPSSHTLMKGGSTKYWSGNSEFHFYSINVGGFFKLRSGEEISIEVSNPSLLDPDQDATYFGAFKVRDID
notes: also called human RANKL; huRANKL; source: recombinant protein huRANKL, provided by Amgen Inc
